Columns and labels:
[1] = tested on: myc-tagged CHO cell-expressed CTHRC1
[2] = tested on: His-tagged CTHRC1 expressed in Chinese hamster ovary cells (CHO)

| Substance | cleavage of CTHRC1 (immunoblot after digestion) [1] | also measured |
| --- | --- | --- |
| MMP-7 | MMP-7 and thrombin do not cleave CTHRC1 |  |
| matrix metalloprotease 1 (MMP-1) |  | cleavage of CTHRC1 (immunoblot after 15 and 60 minutes digest) [1]: MMP-1 (FIG. 31) cleave CTHRC1 near the N terminus |
| thrombin | MMP-7 and thrombin do not cleave CTHRC1 |  |
| highly purified bacterial collagenase (VII, Sigma) |  | cleavage of CTHRC1 (immunoblot after digestion) [2]: highly purified bacterial collagenase (Sigma) (FIG. 30), as well as MMP-1 (FIG. 31) cleave CTHRC1 near the N terminus |

— patent publication US20050147602
